Test results: patent US20210285971A1 (ROYAL INSTITUTION FOR THE ADVANCEMENT OF LEARNING MCGILL …, published 2021)

Key:
[1] = target: Aβ34 G33A variant (G33A modified neo-epitope); assay: SPR (Biacore T200), single-cycle kinetics, Aβ34 variant peptide as analyte (7.8-2000 nM) over mab34 captured on an anti-mouse Fc sensor
Description: (§1) Using a BIACORE T200 system (GE Healthcare Bio-Sciences AB, Upsala, Sweden; v2.0 Control and v1.0 Evaluation software), SPR experiments were performed at 25° C. using filtered (0.2 μm) and degassed HBS-EP+ buffer (10 mM HEPES pH 7.4; 150 mM NaCl; 3 mM EDTA; 0.05% (v/v) Tween™-20). Using Biacore's Amine Coupling Kit, Mouse Antibody Capture Kit, and CM5 sensors, an anti-mouse Fc antibody (14 μg/mL in 10 mM sodium acetate pH 5.0) was immobilized to the flow cells (8000 RU each) as recommended by GE. To assess binding specificity, a variety of Aβ peptides (0 2 μM; 4-fold dilution series) were titrated over reference (anti-mouse Fc antibody only) and active (1000 RU mab34 captured to anti-mouse Fc antibody) surfaces in single-cycle kinetic mode (25 uL/min.×5 min. association+10 min. dissociation). Between each sample series, surfaces were regenerated at 50 μL/min. using two 30 sec pulses of Pierce Gentle Ag/Ab Elution Buffer pH 6.6 (Thermo Scientific #21027) as well as 10 mM glycine pH 1.7.

synthetic Aβ38 peptide = target: T1, synthetic Aβ38 peptide (UniProt P05067 672-709); assay: SPR (Biacore T200), single-cycle kinetics, peptide as analyte (7.8-2000 nM) over mab34 captured on an anti-mouse Fc sensor
T1 construct: domain: Aβ38
Description: as §1

synthetic Aβ35 peptide = target: T2, synthetic Aβ35 peptide (UniProt P05067 672-706); assay: as above
T2 construct: domain: Aβ35
Description: as §1

synthetic Aβ42 peptide = target: T3, synthetic Aβ42 peptide (UniProt P05067 672-713); assay: as above
T3 construct: domain: Aβ42; also called Abeta42
Description: as §1

synthetic Aβ40 peptide = target: T4, synthetic Aβ40 peptide (UniProt P05067 672-711); assay: as above
T4 construct: domain: Aβ40
Description: as §1

synthetic Aβ34 peptide = target: T5, synthetic Aβ34 peptide; assay: SPR (Biacore T200), multi-cycle titration of Aβ34 (0-1.6 µM, 3-fold series) over mab34 captured on an anti-mouse Fc sensor; steady-state affinity fit of Requilibrium against concentration
T5 construct: Synthetic peptide from PSL, Germany
Description: as §1, with “To assess binding specificity, a variety of Aβ peptides (0 2 μM; 4-fold dilution series) were titrated over reference (anti-mouse Fc antibody only) and active (1000 RU mab34 captured to anti-mouse Fc antibody) surfaces in single-cycle kinetic mode (25 uL/min.×5 min. association+10 min. dissociation).” left out

T3 sequence (P05067 672-713 limits assumed): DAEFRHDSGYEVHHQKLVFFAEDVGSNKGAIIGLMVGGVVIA
T4 sequence (P05067 672-711 limits assumed): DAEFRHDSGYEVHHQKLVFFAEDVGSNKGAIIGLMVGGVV
T2 sequence (P05067 672-706 limits assumed): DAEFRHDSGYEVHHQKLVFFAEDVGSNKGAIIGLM
T1 sequence (P05067 672-709 limits assumed): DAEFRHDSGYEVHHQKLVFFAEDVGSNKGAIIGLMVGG
T5 sequence (peptide, as listed by the source): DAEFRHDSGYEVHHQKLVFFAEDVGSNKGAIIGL
Chain of Aβ34 G33A variant (G33A modified neo-epitope) (peptide, as listed by the source G33A G33A G33A G33A): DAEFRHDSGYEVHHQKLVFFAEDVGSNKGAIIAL

B1: mab34 (monoclonal neo-epitope anti-Aβ34 antibody) (antibody, V domains shown)
VH: VKLVESGGGLVKPGGSLKLSCAASGFTFSTYAMSWVRQTPEKRLEWVASISSGGNTYYPDSVKGRFTISRDNARHILYLQMSSLRSEDTAMYYCARDSYYFGNSVYYAMDYWGQGTSVTVSS
VL: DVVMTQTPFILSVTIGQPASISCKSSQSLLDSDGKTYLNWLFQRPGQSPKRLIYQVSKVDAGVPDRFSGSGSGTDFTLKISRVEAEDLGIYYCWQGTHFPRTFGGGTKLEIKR
notes: Mouse monoclonal from a hybridoma (Balb/cJ mice immunised with Aβ27-34-KLH); In SPR it was captured on an anti-mouse Fc surface
binding result [1]: no binding (tested: 2000 nM) | binding result (synthetic Aβ38 peptide): no binding (tested: 2000 nM) | binding result (synthetic Aβ35 peptide): no binding (tested: 2000 nM) | binding result (synthetic Aβ42 peptide): no binding (tested: 2000 nM) | binding result (synthetic Aβ40 peptide): no binding (tested: 2000 nM) | Kd (synthetic Aβ34 peptide): ~40 nM
